Among the data in PMC5912465 are stoichiometry N values, retold here.

The assay addresses T1, human CCL8 (residues Gln-24 to Pro-99), expressed in E. coli (human), P80075.
T1 chain: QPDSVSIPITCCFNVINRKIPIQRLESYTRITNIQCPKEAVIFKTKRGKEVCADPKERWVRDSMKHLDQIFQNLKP
Description: native MS; CCL8 alone in 200 mM ammonium acetate pH 6.5; modified Q Exactive, capillary voltage 1.2 kV, source temperature 100 °C. The following applies: remark: other sources report otherwise.

B1: human CCL8 (residues Gln-24 to Pro-99), expressed in E. coli, P80075 24-99 (ligand)
chain: QPDSVSIPITCCFNVINRKIPIQRLESYTRITNIQCPKEAVIFKTKRGKEVCADPKERWVRDSMKHLDQIFQNLKP
The term stoichiometry N denotes the number of molecules, sites or subunits per partner or assembly. B1 returned a stoichiometry N of 2.
